Laboratory results: article PMC8036718, “Two Be or Not Two Be: The Nuclear Autoantigen La/SS-B Is Able to Form Dimers and Oligomers in a Redox Dependent Manner” (International Journal of Molecular Sciences, 2021)

T1: full-length human La protein (La 1-408) (human, UniProt P05455 1-408)
T1 construct: Cloned into pET28b; also called La/SS-B; wild-type La protein
T1 sequence (looked up): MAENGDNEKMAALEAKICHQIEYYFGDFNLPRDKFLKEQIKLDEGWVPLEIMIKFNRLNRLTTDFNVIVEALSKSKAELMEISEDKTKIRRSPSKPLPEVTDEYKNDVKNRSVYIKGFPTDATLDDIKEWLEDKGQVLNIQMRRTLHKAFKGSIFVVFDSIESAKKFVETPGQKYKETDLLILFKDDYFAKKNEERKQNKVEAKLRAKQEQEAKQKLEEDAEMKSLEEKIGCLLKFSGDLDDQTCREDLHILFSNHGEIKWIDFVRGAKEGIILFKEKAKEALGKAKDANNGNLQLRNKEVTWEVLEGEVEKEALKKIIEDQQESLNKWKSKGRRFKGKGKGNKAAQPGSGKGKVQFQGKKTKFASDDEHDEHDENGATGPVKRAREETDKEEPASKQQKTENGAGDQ

B1: LaC, C-terminal La fragment aa194-408 (domain or fragment, human, UniProt P05455 194-408, looked up)
chain: EERKQNKVEAKLRAKQEQEAKQKLEEDAEMKSLEEKIGCLLKFSGDLDDQTCREDLHILFSNHGEIKWIDFVRGAKEGIILFKEKAKEALGKAKDANNGNLQLRNKEVTWEVLEGEVEKEALKKIIEDQQESLNKWKSKGRRFKGKGKGNKAAQPGSGKGKVQFQGKKTKFASDDEHDEHDENGATGPVKRAREETDKEEPASKQQKTENGAGDQ

Tests used:
[1] = biological target: T1, full-length human La protein (La 1-408); assay: far-Western, overlay or dot blot; His-tagged La fragments separated by SDS-PAGE and blotted; after blocking the membrane was incubated with unlabeled full-length La protein (or LaN); bound probe detected with the anti-La mAb SW5 (Figure 5C also with 5B9); conditions: both partners purified
[2] = biological target: T1, full-length human La protein (La 1-408); assay: SPR; full-length human La protein (La1-408) covalently linked to the sensor chip; BSA-coupled chip as control; La 1-408 or deletion mutants as analytes; conditions: both partners purified
[3] = biological target: B1; assay: far-Western, overlay or dot blot; His-tagged La fragments separated by SDS-PAGE and blotted; after blocking the membrane was incubated with unlabeled full-length La protein (or LaN); bound probe detected with the anti-La mAb SW5 (Figure 5C also with 5B9); conditions: both partners purified
[4] = biological target: the molecule itself; assay: non-reducing SDS-PAGE and immunoblotting; purified La proteins as isolated (untreated) or treated with 2 mM CuSO4 (oxidized), sample buffer without ß-mercaptoethanol; blots with anti-La mAb SW5 or 7B6; shows only species held by disulfide bridges

binding result [2] | Binder | further results
– | B1 | binding result [1]: binds
binds | La 278-408 (domain or fragment, human, UniProt P05455 278-408, looked up) KAKEALGKAKDANNGNLQLRNKEVTWEVLEGEVEKEALKKIIEDQQESLNKWKSKGRRFKGKGKGNKAAQPGSGKGKVQFQGKKTKFASDDEHDEHDENGATGPVKRAREETDKEEPASKQQKTENGAGDQ | –
binds | La 1-245 (domain or fragment, human, UniProt P05455 1-245, looked up, La protein, human, residues 1-245 (lacks the Dim domain)) MAENGDNEKMAALEAKICHQIEYYFGDFNLPRDKFLKEQIKLDEGWVPLEIMIKFNRLNRLTTDFNVIVEALSKSKAELMEISEDKTKIRRSPSKPLPEVTDEYKNDVKNRSVYIKGFPTDATLDDIKEWLEDKGQVLNIQMRRTLHKAFKGSIFVVFDSIESAKKFVETPGQKYKETDLLILFKDDYFAKKNEERKQNKVEAKLRAKQEQEAKQKLEEDAEMKSLEEKIGCLLKFSGDLDDQTC | –
– | LaN, C-terminally truncated La fragment aa1-192 (domain or fragment, human, UniProt P05455 1-192, looked up, La protein, human, residues 1-192 (La motif plus RRM1 domain); also called La 1-192) MAENGDNEKMAALEAKICHQIEYYFGDFNLPRDKFLKEQIKLDEGWVPLEIMIKFNRLNRLTTDFNVIVEALSKSKAELMEISEDKTKIRRSPSKPLPEVTDEYKNDVKNRSVYIKGFPTDATLDDIKEWLEDKGQVLNIQMRRTLHKAFKGSIFVVFDSIESAKKFVETPGQKYKETDLLILFKDDYFAKK | binding result [3]: binds
– | mono cysteine mutant of La protein (La_C18A) (natural protein, human, UniProt P05455 1-408, looked up, La protein, human, with Cys18 changed to alanine; Runs as 50 kDa La protein) MAENGDNEKMAALEAKIAHQIEYYFGDFNLPRDKFLKEQIKLDEGWVPLEIMIKFNRLNRLTTDFNVIVEALSKSKAELMEISEDKTKIRRSPSKPLPEVTDEYKNDVKNRSVYIKGFPTDATLDDIKEWLEDKGQVLNIQMRRTLHKAFKGSIFVVFDSIESAKKFVETPGQKYKETDLLILFKDDYFAKKNEERKQNKVEAKLRAKQEQEAKQKLEEDAEMKSLEEKIGCLLKFSGDLDDQTCREDLHILFSNHGEIKWIDFVRGAKEGIILFKEKAKEALGKAKDANNGNLQLRNKEVTWEVLEGEVEKEALKKIIEDQQESLNKWKSKGRRFKGKGKGNKAAQPGSGKGKVQFQGKKTKFASDDEHDEHDENGATGPVKRAREETDKEEPASKQQKTENGAGDQ | binding result [4]: binds
– | double cysteine mutant of La protein (La_C232A_C245A) (natural protein, human, UniProt P05455 1-408, looked up, La protein, human, with Cys232 and Cys245 changed to alanine) MAENGDNEKMAALEAKICHQIEYYFGDFNLPRDKFLKEQIKLDEGWVPLEIMIKFNRLNRLTTDFNVIVEALSKSKAELMEISEDKTKIRRSPSKPLPEVTDEYKNDVKNRSVYIKGFPTDATLDDIKEWLEDKGQVLNIQMRRTLHKAFKGSIFVVFDSIESAKKFVETPGQKYKETDLLILFKDDYFAKKNEERKQNKVEAKLRAKQEQEAKQKLEEDAEMKSLEEKIGALLKFSGDLDDQTAREDLHILFSNHGEIKWIDFVRGAKEGIILFKEKAKEALGKAKDANNGNLQLRNKEVTWEVLEGEVEKEALKKIIEDQQESLNKWKSKGRRFKGKGKGNKAAQPGSGKGKVQFQGKKTKFASDDEHDEHDENGATGPVKRAREETDKEEPASKQQKTENGAGDQ | stoichiometry N [4]: 2
binds | La 239-408 (domain or fragment, human, UniProt P05455 239-408, looked up) DLDDQTCREDLHILFSNHGEIKWIDFVRGAKEGIILFKEKAKEALGKAKDANNGNLQLRNKEVTWEVLEGEVEKEALKKIIEDQQESLNKWKSKGRRFKGKGKGNKAAQPGSGKGKVQFQGKKTKFASDDEHDEHDENGATGPVKRAREETDKEEPASKQQKTENGAGDQ | –
binds | La 1-371 (domain or fragment, human, UniProt P05455 1-371, looked up, La protein, human, residues 1-371 (holds the Dim domain)) MAENGDNEKMAALEAKICHQIEYYFGDFNLPRDKFLKEQIKLDEGWVPLEIMIKFNRLNRLTTDFNVIVEALSKSKAELMEISEDKTKIRRSPSKPLPEVTDEYKNDVKNRSVYIKGFPTDATLDDIKEWLEDKGQVLNIQMRRTLHKAFKGSIFVVFDSIESAKKFVETPGQKYKETDLLILFKDDYFAKKNEERKQNKVEAKLRAKQEQEAKQKLEEDAEMKSLEEKIGCLLKFSGDLDDQTCREDLHILFSNHGEIKWIDFVRGAKEGIILFKEKAKEALGKAKDANNGNLQLRNKEVTWEVLEGEVEKEALKKIIEDQQESLNKWKSKGRRFKGKGKGNKAAQPGSGKGKVQFQGKKTKFASDDEHD | –
